One may read the stoichiometry N as a count of units in the complex or per binding partner.

Test [1] addresses MS367 (PAS histidine kinase from Methylocella silvestris BL2) (Methylocella silvestris BL2). The test is described as follows: SEC-MALS; PAS-HKs MS367 and RE356; mixtures, and monomer and dimer fractions purified separately and reinjected on Superdex 200 GL; HSEC buffer with 1 mM ATP; FPLC at 4 °C, MALS at 25 °C; n = 1. (In general: SEC sorts molecules by how far they enter the pores of the column.)

The target of test [2] is RE356 (PAS histidine kinase from Rhizobium etli CFN 42) (Rhizobium etli CFN 42). Described as above.
Test [3] deals with RH376 WT (LOV histidine kinase). The test is described as follows: SEC-MALS; LOV-HKs and RH376 deletion mutants; ~15 μM sample (400 μl) with 1 mM ATP on Superdex 200 GL 10/300 in HSEC buffer (50 mM Hepes pH 7.5, 100 mM NaCl, 10 mM MgCl2, 0.5 mM DTT) with 1 mM ATP; dark (dim red light) and lit (blue LED) runs; FPLC at 4 °C, MALS and refractive index at 25 °C; n = 1; oligomeric state on a qualitative five-bin scale.

For test [4], the target named is RT349 (LOV histidine kinase from Rubellimicrobium thermophilum) (Rubellimicrobium thermophilum). Described as above.

Turning to “MS367 (PAS histidine kinase from Methylocella silvestris BL2) (enzyme)”, the stoichiometry N in test [1] is 2.

As to “RE356 (PAS histidine kinase from Rhizobium etli CFN 42) (enzyme)”, the stoichiometry N in test [2] was 2.

For “RH376 WT (LOV histidine kinase) (enzyme)”, the stoichiometry N in test [3] was 2.

The substance “RT349 (LOV histidine kinase from Rubellimicrobium thermophilum) (enzyme)” came in with a stoichiometry N in test [4] of 2.

For the origin of these results see article PMC10359499.
